Measurements reported in patent US20090022728A1 (RINAT NEUROSCIENCE, published 2009).
Substitutions are numbered along the chain they refer to. Names may count otherwise.

B1: 9TL variant M36 Fab (Fab, V domains shown)
VH: QVQLVQSGAEVKKPGASVKVSCKASGYYTEAYYIHWVRQAPGQGLEWMGRIDPATGNTKYAPRLQDRVTMTRDTSTSTVYMELSSLRSEDTAVYYCASLYSRPVYWGQGTTVTVSS
VL: DVVMTQSPLSLPVTLGQPASISCKSSQSLLYSDAKTYLNWFQQRPGQSPRRLIYQISRLDPGVPDRFSGSGSGTDFTLKISRVEAEDVGVYYCLQGTHYPVLFGQGTRLEIKR
notes: Fab; human IgG2 CH1 and kappa CL
B2: 9TL variant M43 Fab (Fab, V domains shown)
VH: B1 VH with R102L, V104I
VL: B1 VL
notes: as for B1
B3: 9TL variant W8 Fab (Fab, V domains shown)
VH: B1 VH with R102L
VL: B1 VL with Y31H, A34S, K35A, L102T
notes: as for B1
B4: 9TL variant M53 Fab (Fab, V domains shown)
VH: B1 VH with R102L, Y105W
VL: B1 VL
notes: as for B1
B5: 9TL variant M38 Fab (Fab, V domains shown)
VH: B1 VH with R102V
VL: B1 VL
notes: as for B1
B6: 9TL variant M55 Fab (Fab, V domains shown)
VH: B1 VH with R102L, Y105I
VL: B1 VL
notes: as for B1
B7: 9TL variant M51 Fab (Fab, V domains shown)
VH: B1 VH with R102L, Y105H
VL: B1 VL
notes: as for B1
B8: 9TL variant W5 Fab (Fab, V domains shown)
VH: B1 VH with R102L
VL: B1 VL with Y31H, K35A, L102T
notes: as for B1
B9: 9TL variant M48 Fab (Fab, V domains shown)
VH: B1 VH with R102L, V104S
VL: B1 VL
notes: as for B1
B10: 9TL variant M52 Fab (Fab, V domains shown)
VH: B1 VH with R102L, Y105F
VL: B1 VL
notes: as for B1
B11: 9TL variant W1 Fab (Fab, V domains shown)
VH: B1 VH with R102L
VL: B1 VL with Y31A, A34S, L102T
notes: as for B1
B12: 9TL variant M41 Fab (Fab, V domains shown)
VH: B1 VH with R102Q
VL: B1 VL
notes: as for B1
B13: 9TL variant M39 Fab (Fab, V domains shown)
VH: B1 VH with R102S
VL: B1 VL
notes: as for B1
B14: 9TL variant M49 Fab (Fab, V domains shown)
VH: B1 VH with R102L, V104N
VL: B1 VL
notes: as for B1
B15: 9TL variant M40 Fab (Fab, V domains shown)
VH: B1 VH with R102T
VL: B1 VL
notes: as for B1
B16: 9TL variant M50 Fab (Fab, V domains shown)
VH: B1 VH with R102L, V104F
VL: B1 VL
notes: as for B1
B17: 9TL variant M56 Fab (Fab, V domains shown)
VH: B1 VH with R102L, Y105V
VL: B1 VL
notes: as for B1
B18: 9TL variant M54 Fab (Fab, V domains shown)
VH: B1 VH with R102L, Y105S
VL: B1 VL
notes: as for B1
B19: 9TL variant M42 Fab (Fab, V domains shown)
VH: B1 VH with R102E
VL: B1 VL
notes: as for B1
B20: 9TL variant M37 Fab (Fab, V domains shown)
VH: B1 VH with R102A
VL: B1 VL
notes: as for B1
B21: 9TL variant M47 Fab (Fab, V domains shown)
VH: B1 VH with R102L, V104Q
VL: B1 VL
notes: as for B1
B22: 9TL variant M46 Fab (Fab, V domains shown)
VH: B1 VH with R102L, V104C
VL: B1 VL
notes: as for B1
B23: 6G heavy chain variant 3C (D103G) (antibody, V domains shown)
VH: QVQLVQSGAEVKKPGASVKVSCKASGYTFTTYAIHWVRQAPGQGLEWMGFTSPYSGVSNYNQKFKGRVTMTRDTSTSTVYMELSSLRSEDTAVYYCARFDNYGRGYVRDYWGQGTLVTVS
VL: DIVMTQSPDSLAVSLGERATINCRASESVDNDRISFLNWYQQKPGQPPKLLIYAATKQGTGVPDRFSGSGSGTDFTLTISSLQAEDVAVYYCQQSKEFPWSFGGGTKVEIKR
B24: 6G heavy chain variant 4B (R104F) (antibody, V domains shown)
VH: B23 VH with G103D, R104F
VL: B23 VL
B25: 6G heavy chain variant 9E (N101R) (antibody, V domains shown)
VH: B23 VH with N101R, G103D
VL: B23 VL
B26: 6G heavy chain variant 8H (N101H) (antibody, V domains shown)
VH: B23 VH with N101H, G103D
VL: B23 VL
B27: 6G light chain variant 7F (Q94K) (antibody, V domains shown)
VH: B23 VH with G103D
VL: B23 VL with Q94K
B28: 6G light chain variant 7E (Q94R) (antibody, V domains shown)
VH: B23 VH with G103D
VL: B23 VL with Q94R
B29: 6G light chain variant 5B (Q94G) (antibody, V domains shown)
VH: B23 VH with G103D
VL: B23 VL with Q94G
B30: 6G light chain variant 6E (E97P) (antibody, V domains shown)
VH: B23 VH with G103D
VL: B23 VL with E97P
B31: 6G light chain variant 10E (S95L) (antibody, V domains shown)
VH: B23 VH with G103D
VL: B23 VL with S95L

What follows are binders tested against T1, biotinylated Aβ1-40 peptide (biotinylated (N-biotinylated in Example 7)) (assay: SPR, Fab over Aβ1-40 on SA chip).
T1 construct: captured on streptavidin (SA) chip; also called Biotinylated Aβ peptide 1-40; Aβ1-40 on SA chip
Procedure: (§1) Affinities of 9TL Fab fragment and its variants Fab fragments were determined by Surface Plasmon Resonance (SPR) system (BIAcore 3000™, BIAcore, Inc., Piscaway, N.J.). SA chips (streptavidin) were used according to the supplier's instructions. Biotinylated Aβ peptide 1-40 was diluted into HBS-EP (10 mM HEPES pH 7.4, 150 mM NaCl, 3 mM EDTA, 0.005% P20) and injected over the chip at a concentration of 0.005 mg/mL. Using variable flow time across the individual chip channels, two ranges of antigen density were achieved: 10-200 response units (RU) for detailed kinetic studies and 500-600 RU for concentration studies and screening. […] HBS-EP buffer was used as running buffer for all the BIAcore assays. […] The concentrations of the Fab proteins were determined by ELISA and/or SDS-PAGE electrophoresis using a standard Fab of known concentration (determined by amino acid analysis). Kinetic association rates (kₒₙ) and dissociation rates (koff) were obtained simultaneously by fitting the data to a 1:1 Langmuir binding model (Karlsson, R. Roos, H. Fagerstam, L. Petersson, B. (1994). Methods Enzymology 6. 99-110) using the BIAevaluation program. Equilibrium dissociation constant (KD) values were calculated as koff/kₒₙ.
(§2) All amino acid substitutions of the variants shown in Table 3 are described relative to the sequence of 9TL. KD and other kinetic parameters were determined by BIAcore analysis described above with Aβ₁₋₄₀ immobilized on SA chip.

T1 sequence (peptide, as listed by the source): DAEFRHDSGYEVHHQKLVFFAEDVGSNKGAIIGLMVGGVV

| koff [s⁻¹] | Binder |
| --- | --- |
| 0.0009 | B1 |
| 0.0003 | B2 |
| 0.0038 | B3 |
| 0.0013 | B4 |
| 0.0015 | B5 |
| 0.003 | B6 |
| 0.00086 | B7 |
| 0.004 | B8 |
| 0.026 | B9 |
| 0.0013 | B10 |
| 0.009 | B11 |
| 0.01 | B12 |
| 0.0023 | B13 |
| 0.026 | B14 |
| 0.0045 | B15 |
| 0.027 | B16 |
| 0.0035 | B17 |
| 0.0024 | B18 |
| 0.015 | B19 |
| 0.00092 | B20 |
| 0.02 | B21 |
| 0.02 | B22 |

These binders were tested against T2, Aβ1-42 peptide (assay: ELISA, nonbiotinylated peptide on plate).
T2 construct: also called 1-42 (WT)
Procedure: (§3) ELISA was used for measuring binding of antibody 6G and variants to nonbiotinylated Aβ peptides. NUNC maxisorp plates were coated with 2.5 ug/ml of Aβ peptides in PBS pH 7.4 for more than 1 hour at 4° C. Plates were blocked with 1% BSA in PBS buffer pH 7.4. Primary antibody (from cell supernatants, serum containing anti-Aβ antibody, or purified full antibody or Fabs at desired dilution) was incubated with the immobilized Aβ peptides for 1 h at room temperature. After washing, the plates were incubated with secondary antibody, a HRP conjugated goat anti-human kappa chain antibody (MP Biomedicals, 55233) at 1:5000 dilution. After washing, bound secondary antibody was measured by adding TMB substrate (KPL, 50-76-02, 50-65-02). The HRP reaction was stopped by adding 1M phosphoric acid and absorbance at 450 nm was measured.
(§4) All amino acid substitutions of the variants shown in Table 8 are described relative to the sequence of 6G. Binding was determined by ELISA described above with nonbiotinylated Aβ₁₋₄₀ or Aβ₁₋₄₂ immobilized on the surface of an ELISA plate.

T2 sequence (peptide, as listed by the source): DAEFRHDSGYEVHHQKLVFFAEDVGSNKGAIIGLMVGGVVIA

| A450 ELISA [A450] | Binder |
| --- | --- |
| 0.76 | B23 |
| 0.71 | B24 |
| 0.26 | B25 |
| 0.19 | B26 |

Each binder was assayed against T3, Aβ1-40 peptide (assay: ELISA, nonbiotinylated peptide on plate).
T3 construct: synthetic peptide, not biotinylated; also called 1-40 (WT); beta amyloid 1-40
Procedure: as §3, §4

| A450 ELISA [A450] | Binder |
| --- | --- |
| 2.3 | B23 |
| 0.12 | B27 |
| 0.09 | B28 |
| 0.09 | B29 |
| 0.12 | B30 |
| 0.08 | B31 |
| 2.48 | B24 |

The binders below were run against T1, biotinylated Aβ1-40 peptide (assay: SPR, Fab over Aβ1-40 on SA chip; KD=koff/kon).
Procedure: as §1, §2

| Kd [nM] | Binder |
| --- | --- |
| 2.83 | B1 |
| 0.94 | B2 |
| 11.9 | B3 |
| 4.09 | B4 |
| 4.72 | B5 |
| 9.43 | B6 |
| 2.7 | B7 |
| 12.6 | B8 |
| 81.8 | B9 |
| 4.09 | B10 |
| 28.3 | B11 |
| 31.4 | B12 |
| 7.23 | B13 |
| 81.8 | B14 |
| 14.2 | B15 |
| 84.9 | B16 |
| 11 | B17 |
| 7.55 | B18 |
| 47.2 | B19 |
| 2.89 | B20 |
| 62.9 | B21 |
| 62.9 | B22 |

These binders were tested against T1, biotinylated Aβ1-40 peptide (assay: SPR, Fab over Aβ1-40 on SA chip; kon may be assumed = 9TL (footnote 2)).
Procedure: as §1, §2

| kon [M⁻¹ s⁻¹] | Binder |
| --- | --- |
| 318000 | B1 |
| 318000 | B2 |
| 318000 | B3 |
| 318000 | B4 |
| 318000 | B5 |
| 318000 | B6 |
| 318000 | B7 |
| 318000 | B8 |
| 318000 | B9 |
| 318000 | B10 |
| 318000 | B11 |
| 318000 | B12 |
| 318000 | B13 |
| 318000 | B14 |
| 318000 | B15 |
| 318000 | B16 |
| 318000 | B17 |
| 318000 | B18 |
| 318000 | B19 |
| 318000 | B20 |
| 318000 | B21 |
| 318000 | B22 |
